Paper PMC5076370

Columns and labels:
[1] = molecular target: GoxA precursor protein lacking CTQ (Marinomonas mediterranea); test: SEC
[2] = molecular target: active GoxA with mature CTQ (Marinomonas mediterranea); test: SEC

stoichiometry N (GoxB per GoxA precursor) [1]	stoichiometry N [2]	Substance
1		GoxB (enzyme)
	2	active GoxA with mature CTQ (enzyme)
